Molecular target: hen egg-white lysozyme (hen, UniProt P00698 19-147)
Assay: method not stated

B1: cAb-Lys3 (VHH)
VHH: DVQLQASGGGSVQAGGSLRLSCAASGYTIGPYCMGWFRQAPGKEREGVAAINMGGGITYYADSVKGRFTISQDNAKNTVYLLMNSLEPEDTAIYYCAADSTIYASYYECGHGLSTGGYGYDSWGQGTQVTVSS
  Ka: 2e+07 M⁻¹

From patent WO1997049805A2 (dated 1997)
